Measurements as given in paper PMC3819363, “Post-Transcriptional Regulator Hfq Binds Catalase HPII: Crystal Structure of the Complex” (PLoS ONE, 2013).

Target: the molecule itself
Test: SDS-PAGE; samples in SDS buffer on a polyacrylamide gel; bands of the dissolved crystals identified by PMF MALDI-TOF; crystals heated at ~95°C for 5 min

B1: catalase HPII (endogenous, Escherichia coli) (enzyme, Escherichia coli (endogenous in E. coli), UniProt P21179 1-753, looked up)
chain: MSQHNEKNPHQHQSPLHDSSEAKPGMDSLAPEDGSHRPAAEPTPPGAQPTAPGSLKAPDTRNEKLNSLEDVRKGSENYALTTNQGVRIADDQNSLRAGSRGPTLLEDFILREKITHFDHERIPERIVHARGSAAHGYFQPYKSLSDITKADFLSDPNKITPVFVRFSTVQGGAGSADTVRDIRGFATKFYTEEGIFDLVGNNTPIFFIQDAHKFPDFVHAVKPEPHWAIPQGQSAHDTFWDYVSLQPETLHNVMWAMSDRGIPRSYRTMEGFGIHTFRLINAEGKATFVRFHWKPLAGKASLVWDEAQKLTGRDPDFHRRELWEAIEAGDFPEYELGFQLIPEEDEFKFDFDLLDPTKLIPEELVPVQRVGKMVLNRNPDNFFAENEQAAFHPGHIVPGLDFTNDPLLQGRLFSYTDTQISRLGGPNFHEIPINRPTCPYHNFQRDGMHRMGIDTNPANYEPNSINDNWPRETPPGPKRGGFESYQERVEGNKVRERSPSFGEYYSHPRLFWLSQTPFEQRHIVDGFSFELSKVVRPYIRERVVDQLAHIDLTLAQAVAKNLGIELTDDQLNITPPPDVNGLKKDPSLSLYAIPDGDVKGRVVAILLNDEVRSADLLAILKALKAKGVHAKLLYSRMGEVTADDGTVLPIAATFAGAPSLTVDAVIVPCGNIADIADNGDANYYLMEAYKHLKPIALAGDARKFKATIKIADQGEEGIVEADSADGSFMDELLTLMAAHRVWSRIPKIDKIPA
notes: catalase HPII of Escherichia coli, product of the katE gene, endogenous protein, printed molecular weight 84 kDa; residues 27-753 and one heme resolved in the map; Homotetramer, one heme per subunit; also called HPII tetramer; source: endogenous, E. coli overexpressing PomAB mutants
- stoichiometry N: 2 subunits
